Data taken from patent publication US20240360227A1.

Legend:
[1] = molecular target: Recombinant human his-tagged IGF R extracellular domain protein (human) (UniProt P08069); experiment: SPR, Ab captured via anti-huIgG Fc, dissociation at pH 6
[2] = molecular target: Recombinant human his-tagged IGF R extracellular domain protein (human) (UniProt P08069); experiment: SPR, Ab captured via anti-huIgG Fc, pH 7.4

Binder | Kd [1] [nM] | koff [1] [s⁻¹] | kon [1] [M⁻¹ s⁻¹] | Kd [2] [nM] | koff [2] [s⁻¹] | kon [2] [M⁻¹ s⁻¹]
VRDN-02029 (antibody, V domains shown) VH: QVQLQESGPGLVKPSETLSLTCTVSGYSITGGYLWNWIRQPPGKGLEWIGYISYDGTNNYKPSLKDRVTISRDTSKNQFSLKLSSVTAADTAVYYCARYGRVFFDYWGQGTLVTVSS VL: DIVMTQSPLSLPVTPGEPASISCHSSQSIVHSNGNTYLQWYLQKPGQSPQLLIYKVSNRLYGVPDRFSGSGSGTDFTLKISRVEAEDVGVYYCFQGSHVPWTFGQGTKVEIK | 1.1 | 9.38e-05 | 85600 | 0.599 | 5.53e-05 | 92400
VRDN-02039 (antibody, V domains shown) VH: QVQLQESGPGLVKPSETLSLTCTVSGYSITGGYLWNWIRQPPGKGLEWIGYISYDGTNNYKPSLKDRVTISRDTSKNQFSLKLSSVTAADTAVYYCARYGRVFFDYWGQGTLVTVSS VL: DIVMTQSPLSLPVTPGEPASISCRSSQSIVHSNGHTYLQWYLQKPGQSPQLLIYKVSNRLYGVPDRFSGSGSGTDFTLKISRVEAEDVGVYYCFQGSHVPWTFGQGTKVEIK | 1.36 | 0.000109 | 79800 | 0.586 | 5.26e-05 | 89800
VRDN-02033 (antibody, V domains shown) VH: QVQLQESGPGLVKPSETLSLTCTVSGYSITGGYLWNWIRQPPGKGLEWIGYISYDGTNNYKPSLKDRVTISRDTSKNQFSLKLSSVTAADTAVYYCARYGRVFFDYWGQGTLVTVSS VL: DIVMTQSPLSLPVTPGEPASISCRSSQHIVHSNGNTYLQWYLQKPGQSPQLLIYKVSNRLYGVPDRFSGSGSGTDFTLKISRVEAEDVGVYYCFQGSHVPWTFGQGTKVEIK | 1.19 | 0.00011 | 92700 | 0.822 | 8.1e-05 | 98500
VRDN-02043 (antibody, V domains shown) VH: QVQLQESGPGLVKPSETLSLTCTVSGYSITGGYLWNWIRQPPGKGLEWIGYISYDGTNNYKPSLKDRVTISRDTSKNQFSLKLSSVTAADTAVYYCARYGRVFFDYWGQGTLVTVSS VL: DIVMTQSPLSLPVTPGEPASISCRSSQSIVHSNGNTYLHWYLQKPGQSPQLLIYKVSNRLYGVPDRFSGSGSGTDFTLKISRVEAEDVGVYYCFQGSHVPWTFGQGTKVEIK | 1.13 | 9.08e-05 | 80400 | 0.746 | 6.22e-05 | 83400
VRDN-02037 (antibody, V domains shown) VH: QVQLQESGPGLVKPSETLSLTCTVSGYSITGGYLWNWIRQPPGKGLEWIGYISYDGTNNYKPSLKDRVTISRDTSKNQFSLKLSSVTAADTAVYYCARYGRVFFDYWGQGTLVTVSS VL: DIVMTQSPLSLPVTPGEPASISCRSSQSIVHSHGNTYLQWYLQKPGQSPQLLIYKVSNRLYGVPDRFSGSGSGTDFTLKISRVEAEDVGVYYCFQGSHVPWTFGQGTKVEIK | 1.44 | 0.000101 | 70000 | 0.844 | 6.43e-05 | 76200
VRDN-02040 (antibody, V domains shown) VH: QVQLQESGPGLVKPSETLSLTCTVSGYSITGGYLWNWIRQPPGKGLEWIGYISYDGTNNYKPSLKDRVTISRDTSKNQFSLKLSSVTAADTAVYYCARYGRVFFDYWGQGTLVTVSS VL: DIVMTQSPLSLPVTPGEPASISCRSSQSIVHSNGNHYLQWYLQKPGQSPQLLIYKVSNRLYGVPDRFSGSGSGTDFTLKISRVEAEDVGVYYCFQGSHVPWTFGQGTKVEIK | 1.04 | 9.07e-05 | 87000 | 1.22 | 0.000104 | 85400
VRDN-02031 (antibody, V domains shown) VH: QVQLQESGPGLVKPSETLSLTCTVSGYSITGGYLWNWIRQPPGKGLEWIGYISYDGTNNYKPSLKDRVTISRDTSKNQFSLKLSSVTAADTAVYYCARYGRVFFDYWGQGTLVTVSS VL: DIVMTQSPLSLPVTPGEPASISCRSHQSIVHSNGNTYLQWYLQKPGQSPQLLIYKVSNRLYGVPDRFSGSGSGTDFTLKISRVEAEDVGVYYCFQGSHVPWTFGQGTKVEIK | 1.22 | 0.000115 | 94400 | 0.468 | 4.56e-05 | 97300

The remaining binders from weak to strong by Kd [1], led by results:

Kd [1] [nM] | koff [1] [s⁻¹] | kon [1] [M⁻¹ s⁻¹] | Kd [2] [nM] | koff [2] [s⁻¹] | kon [2] [M⁻¹ s⁻¹] | Binder
6.19 | 0.000593 | 95700 | 7.78 | 0.000684 | 87800 | VRDN-02004 (antibody, V domains shown) VH: QVQLQESGPGLVKPSETLSLTCTVSGYSHTGGYLWNWIRQPPGKGLEWIGYISYDGTNNYKPSLKDRVTISRDTSKNQFSLKLSSVTAADTAVYYCARYGRVFFDYWGQGTLVTVSS VL: DIVMTQSPLSLPVTPGEPASISCRSSQSIVHSNGNTYLQWYLQKPGQSPQLLIYKVSNRLYGVPDRFSGSGSGTDFTLKISRVEAEDVGVYYCFQGSHVPWTFGQGTKVEIK
1.31 | 0.000111 | 84800 | 0.649 | 5.36e-05 | 82600 | VRDN-02038 (antibody, V domains shown) VH: QVQLQESGPGLVKPSETLSLTCTVSGYSITGGYLWNWIRQPPGKGLEWIGYISYDGTNNYKPSLKDRVTISRDTSKNQFSLKLSSVTAADTAVYYCARYGRVFFDYWGQGTLVTVSS VL: DIVMTQSPLSLPVTPGEPASISCRSSQSIVHSNHNTYLQWYLQKPGQSPQLLIYKVSNRLYGVPDRFSGSGSGTDFTLKISRVEAEDVGVYYCFQGSHVPWTFGQGTKVEIK
1.26 | 0.000107 | 85000 | 1.03 | 0.000105 | 101000 | VRDN-02034 (antibody, V domains shown) VH: QVQLQESGPGLVKPSETLSLTCTVSGYSITGGYLWNWIRQPPGKGLEWIGYISYDGTNNYKPSLKDRVTISRDTSKNQFSLKLSSVTAADTAVYYCARYGRVFFDYWGQGTLVTVSS VL: DIVMTQSPLSLPVTPGEPASISCRSSQSHVHSNGNTYLQWYLQKPGQSPQLLIYKVSNRLYGVPDRFSGSGSGTDFTLKISRVEAEDVGVYYCFQGSHVPWTFGQGTKVEIK
1.22 | 0.000107 | 87600 | 0.646 | 6.32e-05 | 97800 | VRDN-02035 (antibody, V domains shown) VH: QVQLQESGPGLVKPSETLSLTCTVSGYSITGGYLWNWIRQPPGKGLEWIGYISYDGTNNYKPSLKDRVTISRDTSKNQFSLKLSSVTAADTAVYYCARYGRVFFDYWGQGTLVTVSS VL: DIVMTQSPLSLPVTPGEPASISCRSSQSIHHSNGNTYLQWYLQKPGQSPQLLIYKVSNRLYGVPDRFSGSGSGTDFTLKISRVEAEDVGVYYCFQGSHVPWTFGQGTKVEIK
1.16 | 0.000102 | 87800 | 0.795 | 7.59e-05 | 95500 | VRDN-02041 (antibody, V domains shown) VH: QVQLQESGPGLVKPSETLSLTCTVSGYSITGGYLWNWIRQPPGKGLEWIGYISYDGTNNYKPSLKDRVTISRDTSKNQFSLKLSSVTAADTAVYYCARYGRVFFDYWGQGTLVTVSS VL: DIVMTQSPLSLPVTPGEPASISCRSSQSIVHSNGNTHLQWYLQKPGQSPQLLIYKVSNRLYGVPDRFSGSGSGTDFTLKISRVEAEDVGVYYCFQGSHVPWTFGQGTKVEIK
1.09 | 9.65e-05 | 88900 | 0.646 | 5.48e-05 | 84800 | VRDN-02030 (antibody, V domains shown) VH: QVQLQESGPGLVKPSETLSLTCTVSGYSITGGYLWNWIRQPPGKGLEWIGYISYDGTNNYKPSLKDRVTISRDTSKNQFSLKLSSVTAADTAVYYCARYGRVFFDYWGQGTLVTVSS VL: DIVMTQSPLSLPVTPGEPASISCRHSQSIVHSNGNTYLQWYLQKPGQSPQLLIYKVSNRLYGVPDRFSGSGSGTDFTLKISRVEAEDVGVYYCFQGSHVPWTFGQGTKVEIK
1.08 | 0.000102 | 94200 | 0.444 | 4.42e-05 | 99500 | VRDN-02036 (antibody, V domains shown) VH: QVQLQESGPGLVKPSETLSLTCTVSGYSITGGYLWNWIRQPPGKGLEWIGYISYDGTNNYKPSLKDRVTISRDTSKNQFSLKLSSVTAADTAVYYCARYGRVFFDYWGQGTLVTVSS VL: DIVMTQSPLSLPVTPGEPASISCRSSQSIVHHNGNTYLQWYLQKPGQSPQLLIYKVSNRLYGVPDRFSGSGSGTDFTLKISRVEAEDVGVYYCFQGSHVPWTFGQGTKVEIK
1.08 | 0.000101 | 94100 | 0.704 | 7.31e-05 | 104000 | VRDN-02042 (antibody, V domains shown) VH: QVQLQESGPGLVKPSETLSLTCTVSGYSITGGYLWNWIRQPPGKGLEWIGYISYDGTNNYKPSLKDRVTISRDTSKNQFSLKLSSVTAADTAVYYCARYGRVFFDYWGQGTLVTVSS VL: DIVMTQSPLSLPVTPGEPASISCRSSQSIVHSNGNTYHQWYLQKPGQSPQLLIYKVSNRLYGVPDRFSGSGSGTDFTLKISRVEAEDVGVYYCFQGSHVPWTFGQGTKVEIK
1 | 9.44e-05 | 94300 | 0.423 | 4.72e-05 | 112000 | VRDN-02003 (antibody, V domains shown) VH: QVQLQESGPGLVKPSETLSLTCTVSGYHITGGYLWNWIRQPPGKGLEWIGYISYDGTNNYKPSLKDRVTISRDTSKNQFSLKLSSVTAADTAVYYCARYGRVFFDYWGQGTLVTVSS VL: DIVMTQSPLSLPVTPGEPASISCRSSQSIVHSNGNTYLQWYLQKPGQSPQLLIYKVSNRLYGVPDRFSGSGSGTDFTLKISRVEAEDVGVYYCFQGSHVPWTFGQGTKVEIK
0.998 | 9.61e-05 | 96300 | 0.769 | 7.16e-05 | 93100 | VRDN-02032 (antibody, V domains shown) VH: QVQLQESGPGLVKPSETLSLTCTVSGYSITGGYLWNWIRQPPGKGLEWIGYISYDGTNNYKPSLKDRVTISRDTSKNQFSLKLSSVTAADTAVYYCARYGRVFFDYWGQGTLVTVSS VL: DIVMTQSPLSLPVTPGEPASISCRSSHSIVHSNGNTYLQWYLQKPGQSPQLLIYKVSNRLYGVPDRFSGSGSGTDFTLKISRVEAEDVGVYYCFQGSHVPWTFGQGTKVEIK
